# Measurements: PMC2118669
# Target: recombinant AIF (UniProt Q9Z0X1)
# Experiment: SPR
# Sequence of UniProt Q9Z0X1 (Q9Z0X1 102-612): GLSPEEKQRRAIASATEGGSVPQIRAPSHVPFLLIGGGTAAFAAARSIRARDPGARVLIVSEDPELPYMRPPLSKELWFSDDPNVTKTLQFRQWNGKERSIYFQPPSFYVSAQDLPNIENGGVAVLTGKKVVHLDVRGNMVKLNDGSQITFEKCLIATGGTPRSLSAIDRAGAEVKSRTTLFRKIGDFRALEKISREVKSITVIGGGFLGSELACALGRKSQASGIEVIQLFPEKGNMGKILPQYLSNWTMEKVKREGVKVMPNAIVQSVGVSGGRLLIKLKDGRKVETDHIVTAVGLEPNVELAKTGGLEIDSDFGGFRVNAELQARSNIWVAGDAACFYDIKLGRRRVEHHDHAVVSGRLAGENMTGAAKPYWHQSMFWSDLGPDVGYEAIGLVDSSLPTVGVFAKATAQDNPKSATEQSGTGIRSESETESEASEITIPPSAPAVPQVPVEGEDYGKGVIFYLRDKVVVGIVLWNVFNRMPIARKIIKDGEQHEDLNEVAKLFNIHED
substance,measurement,value
recombinant CypA (from UniProt P62937 1-165) (natural protein),response (RU) on injection of 25 nM CypA,123 RU
